Data reported in CN108690134A (UNIV XIAMEN; YANG SHENG TANG CO LTD, dated 2018).

T1: HBsAg (乙肝表面抗原) (Hepatitis B virus)
T1 chain: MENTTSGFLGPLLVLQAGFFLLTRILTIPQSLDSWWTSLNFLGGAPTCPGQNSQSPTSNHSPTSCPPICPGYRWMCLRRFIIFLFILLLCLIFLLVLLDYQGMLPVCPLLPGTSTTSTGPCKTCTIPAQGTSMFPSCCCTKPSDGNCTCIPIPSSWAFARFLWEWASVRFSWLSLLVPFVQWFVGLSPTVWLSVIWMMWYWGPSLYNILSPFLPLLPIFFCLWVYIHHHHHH


Biological target: T1, HBsAg (乙肝表面抗原)
Test: SPR, Biacore 3000, HBsAg immobilised on CM5 chip (2400 RU), antibody as analyte from 100 nM in 2-fold dilutions

Binder	Kd [nM]
人源化抗体M1D (antibody, V domains shown, also called humanized M1-23) VH: QVQLQESGPGLVKPSETLSLTCTVSGGSITSNFWSWIRQPPGKGLEWIGYISGSGTYTDYNPSLKSRVTISVDTSKNQFSLKLSSVTAADTAVYYCARSHDYGSNDYAFDFWGQGTTVTVSS VL: DIQMTQSPSSLSASVGDRVTITCRATQDISSSLNWYQQKPGKAPKLLIYYANRLQSGVPSRFSGSGSGTDFTLTISSLQPEDFATYYCQQYHSLPLTFGGGTKVEIK	1.06
人源化抗体M3D (antibody, V domains shown, also called humanized M3-23) VH: QVQLQESGPGLVKPSGTLSLTCAVSGVSISSPYDWTWVRQPPGKGLEWIGRIHGNGGSTSYNPSLKSRVTISVDKSKNQFSLKLSSVTAADTAVYYCVRDETWGQGTLVTVSS VL: not shown	1.12
